Laboratory results: patent US20260151519A1 (AKTIS ONCOLOGY, published 2026)
Bridges are numbered along the chain shown (N, C = ends). Primed or numbered codes have the meaning given here. Where no end group is shown, it is not given here. The star is where a group is joined. FITC = O=C1OC2(c3ccc(O)cc3Oc3cc(O)ccc32)c2ccc(NC(=S)*)cc21; DTPA = O=C(O)CN(CCN(CC(=O)O)CC(=O)O)CCN(CC(=O)O)CC(=O)*; Biotin = O=C1N[C@H]2[C@H](CS[C@H]2CCCCC(=O)*)N1; PEG4″ = 4(ethylene glycol)

Molecular target: T1, Human Nectin-4 (human, UniProt Q96NY8 32-349, limits assumed)
T1 construct: Protein immobilised on the SPR chip; also called target protein
T1 sequence: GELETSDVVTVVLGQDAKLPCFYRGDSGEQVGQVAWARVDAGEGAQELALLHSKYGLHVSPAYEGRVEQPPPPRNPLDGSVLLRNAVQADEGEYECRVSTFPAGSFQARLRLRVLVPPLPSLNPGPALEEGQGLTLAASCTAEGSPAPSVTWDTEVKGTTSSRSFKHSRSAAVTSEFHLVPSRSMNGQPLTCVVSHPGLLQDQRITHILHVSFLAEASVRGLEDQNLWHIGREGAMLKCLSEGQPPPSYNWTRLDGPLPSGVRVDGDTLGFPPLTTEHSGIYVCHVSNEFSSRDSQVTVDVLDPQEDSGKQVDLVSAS
Assay: Table 2B (DELFIA or SPR)

Question: With {Biotin-PEG4″}-CEYDEQFFTALKRLRGADICEYIQASFQYLPGLCIEEILDNLGCS-OH (designed binder, disulfide 1-34, 20-44) [C183] as the binder, how does the Kd read?
Answer: 1.2 nM

Question: Which Kd does the source give for {Biotin-PEG4″}-CDYDEEFFTALKRLRGGDICEYIQASFQYLPGLCIEEILDNLGCS-OH (designed binder, disulfide 1-34, 20-44) [C188] here?
Answer: 1.6 nM

Question: {Biotin-PEG4″}-CEYDEQFFTALKRLRGDDICSYIQASFQYLPGLCIEEILDNLGCS (designed binder, disulfide 1-34, 20-44) [C186] was tested. Which Kd did it give?
Answer: 1.7 nM

Question: {Biotin-PEG4″}-CEYDEEFFTALKRLRGGDICEYIQAAFQYLPGLCIEEILDNLGCS-OH (designed binder, disulfide 1-34, 20-44) [C198] was tested. Which Kd did it give?
Answer: 2.3 nM

Question: Which Kd does the source give for {Biotin-PEG4″}-CEYDEEFFTALKRLRGGDICDYIQASFQYLPGECIEEILDNLGCS-OH (designed binder, disulfide 1-34, 20-44) [C203] here?
Answer: 2.3 nM

Question: For {Biotin-PEG4″}-CDYDEQFFTALKRLRGGDICEYIQASFQYLPGECIEEILDNLGCS (designed binder, disulfide 1-34, 20-44) [C210], which Kd is on record?
Answer: 1.54 nM

Question: For {Biotin-PEG4″}-CEYDEQFFTALKRLRGGDICSYIQASFQYLPGLCIEEILDNLGCS (designed binder, disulfide 1-34, 20-44) [C184], which Kd is on record?
Answer: 2.5 nM

Question: How did the Kd turn out when {Biotin-PEG4″}-CEYDEEFFTALKRLRGGDICDYIQASFQYLPGECIEEILQNLGCS-OH (designed binder, disulfide 1-34, 20-44) [C205] was run?
Answer: 2.1 nM

Question: For {Biotin-PEG4″}-CDYDEEFFTALKRLRGDDICSYIQASFQYLPGLCIEEILDNLGCS-OH (designed binder, disulfide 1-34, 20-44) [C192], which Kd is on record?
Answer: 1.3 nM

Question: {Biotin-PEG4″}-CDYDEQFFTALKRLRGGDICEYIQASFQYLPGQCIEEILDNLGCS (designed binder, disulfide 1-34, 20-44) [C211] was tested. Which Kd did it give?
Answer: 1.19 nM

Question: Which Kd does the source give for {Biotin-PEG4″}-CEYDEEFFTALKRLRGGDICEYIQASFQYLPGECIEEILQNLGCS-OH (designed binder, disulfide 1-34, 20-44) [C204] here?
Answer: 1.98 nM

Question: Which Kd does the source give for {Biotin-PEG4″}-CDYDEQFFTALKRLRGDDICEYIQASFQYLPGLCIEEILDNLGCS-OH (designed binder, disulfide 1-34, 20-44) [C193] here?
Answer: 1 nM

Question: For {Biotin-PEG4″}-CEYDEEFFTALKRLRGADICDYIQASFQYLPGLCIEEILDNLGCS-OH (designed binder, disulfide 1-34, 20-44) [C195], which Kd is on record?
Answer: 2.3 nM

Question: With {Biotin-PEG4″}-CEYDEEFFTALKRLRGGDICEYIQASFQYLPGECIEEILDNLGCS (designed binder, disulfide 1-34, 20-44) [C202] as the binder, how does the Kd read?
Answer: 2.2 nM

Question: How did the Kd turn out when {Biotin-PEG4″}-CEYDEEFFTALKRLRGGDICDYIQASFQYLPGLCIEEILDNLGCS-OH (designed binder, disulfide 1-34, 20-44) [C200] was run?
Answer: 2 nM

Question: For {Biotin-PEG4″}-CDYDEQFFTALKRLRGADICEYIQASFQYLPGLCIEEILDNLGCS-OH (designed binder, disulfide 1-34, 20-44) [C207], which Kd is on record?
Answer: 1.08 nM

Question: For {Biotin-PEG4″}-CDYDEEFFTALKRLRGGDICSYIQASFQYLPGLCIEEILDNLGCS-OH (designed binder, disulfide 1-34, 20-44) [C189], which Kd is on record?
Answer: 1.1 nM

Question: Which Kd does the source give for {Biotin-PEG4″}-CDYDEEFFTALKRLRGDDICEYIQASFQYLPGLCIEEILDNLGCS-OH (designed binder, disulfide 1-34, 20-44) [C191] here?
Answer: 1.4 nM

Question: With {Biotin-PEG4″}-CDYDEQFFTALKRLRGADICEYIQASFQYLPGQCIEEILDNLGCS (designed binder, disulfide 1-34, 20-44) [C209] as the binder, how does the Kd read?
Answer: 1.25 nM

Question: With {Biotin-PEG4″}-CEYDEQFFTALKRLRGADICDYIQASFQYLPGLCIEEILDNLGCS-OH (designed binder, disulfide 1-34, 20-44) [C194] as the binder, how does the Kd read?
Answer: 1.1 nM

Question: Which Kd does the source give for Ac-CEYDEEFFAGLKRLRGGDICYYIKKKFKKVPDLCIEEILDKLGC-OH (designed binder, disulfide 1-34, 20-44) [C16] here?
Answer: 4.34 nM

Question: With Ac-CEYDEEFFNGLHRLRRGDICYYIKKKFKKVPDLCIEEILDKLGC-OH (designed binder, disulfide 1-34, 20-44) [C18] as the binder, how does the Kd read?
Answer: 38.2 nM

Question: Which Kd does the source give for Ac-CEYDEEFFNGLKRLRGGDICYYIKKKFKKVPDLCIEEILDKLGC-OH (designed binder, disulfide 1-34, 20-44) [C17] here?
Answer: 4.16 nM

Question: For Ac-CEDDFQFFADLKRLRGGDICYYIRLKFDKVPDLCIKEILDKLGC-OH (designed binder, disulfide 1-34, 20-44) [C6], which Kd is on record?
Answer: 17.1 nM

Question: With H-CEDDFQFFADLKRLRGGDICYYIRLKFDKVPDLCIKEILDKLGC-OH (designed binder, disulfide 1-34, 20-44) [C4] as the binder, how does the Kd read?
Answer: 14.4 nM

Question: Ac-CEYDEEFFNGLKRLRRGDICYYIKKKFDKVPDLCIEEILDKLGC-OH (designed binder, disulfide 1-34, 20-44) [C15] was tested. Which Kd did it give?
Answer: 12.2 nM

Question: Which Kd does the source give for Ac-CEYDEEFFKGLKRLRGGDICYYIKKKFKKVPDLCIEEILDKLGC-OH (designed binder, disulfide 1-34, 20-44) [C25] here?
Answer: 3.75 nM

Question: How did the Kd turn out when Ac-CEYDEEFFAGLKRLRGGDICYYIKKKFPKVPDLCIEEILDKLGC-OH (designed binder, disulfide 1-34, 20-44) [C19] was run?
Answer: 10.8 nM

Question: With Ac-CEYDEEFFEGLKRLRGGDICYYIKKKFKKVPDLCIEEILDKLGC-OH (designed binder, disulfide 1-34, 20-44) [C26] as the binder, how does the Kd read?
Answer: 5.04 nM

Question: Which Kd does the source give for Ac-CEYDEEFFAGLHRLRGGDICYYIKKKFDKVPDLCIEEILDKLGC-OH (designed binder, disulfide 1-34, 20-44) [C20] here?
Answer: 22.1 nM

Question: For Ac-CEYDEEFFAGLHRLRGTDICYYIKKKFDKVPDLCIEEILDKLGC-OH (designed binder, disulfide 1-34, 20-44) [C23], which Kd is on record?
Answer: 18.5 nM

Question: {FITC}-CEYDEEFFAGLKRLRGGDICYYIKKKFDKVPDLCIEEILDKLGC-OH (designed binder, disulfide 1-34, 20-44) [C10] was tested. Which Kd did it give?
Answer: 37.6 nM

Question: Ac-CEYDEEFFAGLHRLRGTDICYYIKKKFPKVPDLCIEEILDKLGC-OH (designed binder, disulfide 1-34, 20-44) [C24] was tested. Which Kd did it give?
Answer: 84.4 nM

Question: For {DTPA-PEG4″}-CEYDEEFFAGLKRLRGGDICYYIKKKFDKVPDLCIEEILDKLGC-OH (designed binder, disulfide 1-34, 20-44) [C11], which Kd is on record?
Answer: 6.86 nM

Question: How did the Kd turn out when Ac-CEYDEEFFNGLKRLRGGDICYYIKKKFDKVPDLCIEEILDKLGC-OH (designed binder, disulfide 1-34, 20-44) [C13] was run?
Answer: 6.01 nM

Question: How did the Kd turn out when {Biotin-PEG4″}-CEDDEEFFADLKRLRGGDICYYIKLKFDKVPDLCIKEILDKLGC (designed binder, disulfide 1-34, 20-44) [C2] was run?
Answer: 58.9 nM

Question: Which Kd does the source give for Ac-CEYDEEFFAGLKRLRGTDICYYIKKKFDKVPDLCIEEILDKLGC-OH (designed binder, disulfide 1-34, 20-44) [C22] here?
Answer: 12.8 nM

Question: Ac-CEYDEEFFAGLHRLRGGDICYYIKKKFPKVPDLCIEEILDKLGC-OH (designed binder, disulfide 1-34, 20-44) [C21] was tested. Which Kd did it give?
Answer: 49.4 nM

Question: For H-CEYDEEFFAGLKRLRGGDICYYIKKKFDKVPDLCIEEILDKLGC-OH (designed binder, disulfide 1-34, 20-44) [C7], which Kd is on record?
Answer: 5.5 nM

Question: For H-CEYDEEFFAGLKRLRGGDICYYIKKKFDKVPDLCIKEILDKLGC-OH (designed binder, disulfide 1-34, 20-44) [C3], which Kd is on record?
Answer: 9.68 nM

Question: Ac-CEYDEEFFAGLKRLRRGDICYYIKKKFDKVPDLCIEEILDKLGC (designed binder, disulfide 1-34, 20-44) [C14] was tested. Which Kd did it give?
Answer: 14.1 nM

Question: Ac-CEYDEEFFAGLKRLRGGDICYYIKKKFDKVPDLCIKEILDKLGC-OH (designed binder, disulfide 1-34, 20-44) [C5] was tested. Which Kd did it give?
Answer: 18.9 nM
